Laboratory results: patent publication US20090081229A1 (published 2009)

How the values were obtained:
[1] = biological target: T1, HVEM expressed on transfected 293 cells (Homo sapiens (Human), UniProt Q92956 39-283); assay: radioligand binding to transfected cells, Scatchard analysis
T1 construct: Transient transfection of human 293 cells with pRK5-HVEM; also called HVEM transfected cells; 293 cells expressing HVEM
T1 sequence: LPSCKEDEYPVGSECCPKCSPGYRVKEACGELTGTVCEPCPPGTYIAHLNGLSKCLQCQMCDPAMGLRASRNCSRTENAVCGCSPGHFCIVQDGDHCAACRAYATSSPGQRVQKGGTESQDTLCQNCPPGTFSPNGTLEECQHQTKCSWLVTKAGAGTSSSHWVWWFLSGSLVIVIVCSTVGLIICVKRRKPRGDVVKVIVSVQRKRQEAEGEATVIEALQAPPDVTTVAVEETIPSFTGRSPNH
Description: (§1) PRO87299 binds to HVEM in a cell based assay. In this experiment human 293 cells (ATCC CCL 1573) are grown to confluence in tissue culture plates in medium such as DMEM supplemented with fetal calf serum and optionally, nutrient components and/or antibiotics. About 10 μg pRK5-HVEM DNA is mixed with about 1 μg DNA encoding the VA RNA gene [Thimmappaya et al., Cell, 31:543 (1982)] and dissolved in 500 μl of 1 mM Tris-HCl, 0.1 mM EDTA, 0.227 M CaCl₂. To this mixture is added, dropwise, 500 μl of 50 mM HEPES (pH 7.35), 280 mM NaCl, 1.5 mM NaPO₄, and a precipitate is allowed to form for 10 minutes at 25° C. The precipitate is suspended and added to the 293 cells and allowed to settle for about four hours at 37° C. The culture medium is aspirated off and 2 ml of 20% glycerol in PBS is added for 30 seconds. The 293 cells are then washed with serum free medium, fresh medium is added and the cells are incubated for about 5 days. Alternatively, about 10 μg pRK5-HVEM DNA is mixed with LipofectAMINE™ (Gibco/BRL, Gaithersburg Md.) reagent and transfection performed by following the manufacturer's instructions. After the 293 cells were transfected with HVEM, they were incubated with 1125 radiolabled PRO87299(ECD)-Fc and binding allowed to occur. The radiolabled PRO87299 was then competed off with unlabled PRO87299(ECD)-Fc and the estimated number of total binding sites and the dissociation constant (Kd) were determined by Scatchard analysis. FIG. 17(A) is a Scatchard plot and FIG. 17(B) is a displacement plot showing PRO87299(ECD)-Fc binding to HVEM transiently transfected cells. […] Using this methodology, the affinity of HVEM/LIGHT/PRO87299 interactions were determined.

PRO87299(ECD)-Fc [2] = biological target: T2, PRO87299(ECD)-Fc (human, UniProt Q7Z6A9 31-155); assay: SPR (Biacore), PRO87299-Fc amine coupled at ~9800 RU
T2 construct: Reduced apparent molecular weight 55 kDa; also called PRO87299-Fc; PRO87299(ECD)-Fc chimera; not shown: human Fc domain
T2 sequence: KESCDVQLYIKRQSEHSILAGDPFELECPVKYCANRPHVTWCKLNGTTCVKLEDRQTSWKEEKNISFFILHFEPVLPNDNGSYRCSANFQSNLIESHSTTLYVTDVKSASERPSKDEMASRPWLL
Description: PRO87299 interaction to HVEM is not blocked by LIGHT. PRO87299-Fc was amine coupled to a Biacore™ CM5 sensor chip at ˜9800 response units. LIGHT (purchased from Alexis™, Cat. #552-018-C010) was incubated at the increasing concentrations with 4 nM HVEM for 1 hr. […] LIGHT activity was confirmed by binding to immobilized HVEM-Fc on a CM5 sensor chip (data not shown). […] All binding sensograms were run in random order and in duplicate. Response units were recorded as the difference between baseline and 15 seconds before the end of a 2 min injection at 5 μl/min. Concentrations are based on molecular weights of 25 kDa for LIGHT monomer and 55 kDa for monomer HVEM.

PRO87299(ECD)-Fc [3] = biological target: T2, PRO87299(ECD)-Fc; assay: SPR (Biacore), PRO87299(ECD)-Fc amine coupled at ~8000 RU
Description: (§2) In this experiment, PRO87299(ECD)-Fc and CD28 family members hCTLA4-Fc, hPD-1-Fc, hICOS-Fc or hCD28-Fc were amine coupled to a Biacore™ CM5 chip at approximately 8000 response units. Each was then assayed for its ability to bind HVEM. An HVEM-Fc protein was made by ligating the nucleic acids encoding amino acids 1-199 of HVEM to a Fc, resulting in a HVEM-Fc fusion protein. This HVEM-Fc was cloned into an a expression vector which would produce the fusion protein when stably transfected into CHO cells. […] The result was 2 μg/ml of HVEM-Fc injected at 5 μl/min bound selectively to PRO87299 and not to the other member of the CD28 family members tested. The activity of each CD28 family member was confirmed positive by testing the binding response to their known ligands (data not shown) (CD28 family members and ligands were purchased from R&D systems).

hCD28-Fc = biological target: T3, hCD28-Fc (human, UniProt P10747 19-152); assay: SPR (Biacore), hCD28-Fc amine coupled at approximately 8000 RU
T3 construct: Bought; not shown: Fc; not described
T3 sequence (P10747 19-152 limits assumed): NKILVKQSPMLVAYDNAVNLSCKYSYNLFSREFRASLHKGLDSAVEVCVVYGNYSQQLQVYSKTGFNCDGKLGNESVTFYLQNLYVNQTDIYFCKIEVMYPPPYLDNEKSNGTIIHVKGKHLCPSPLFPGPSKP
Description: as §2

hICOS-Fc = biological target: T4, hICOS-Fc (human, UniProt Q9Y6W8 21-141); assay: SPR (Biacore), hICOS-Fc amine coupled at approximately 8000 RU
T4 construct: Bought; not shown: Fc; not described
T4 sequence (looked up): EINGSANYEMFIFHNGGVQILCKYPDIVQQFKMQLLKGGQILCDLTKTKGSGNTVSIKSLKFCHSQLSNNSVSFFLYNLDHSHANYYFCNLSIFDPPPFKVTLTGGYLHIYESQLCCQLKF
Description: as §2

hPD-1-Fc = biological target: T5, hPD-1-Fc (human, UniProt Q15116 25-167); assay: SPR (Biacore), hPD-1-Fc amine coupled at approximately 8000 RU
T5 construct: Bought; not shown: Fc; not described
T5 sequence (Q15116 25-167 limits assumed): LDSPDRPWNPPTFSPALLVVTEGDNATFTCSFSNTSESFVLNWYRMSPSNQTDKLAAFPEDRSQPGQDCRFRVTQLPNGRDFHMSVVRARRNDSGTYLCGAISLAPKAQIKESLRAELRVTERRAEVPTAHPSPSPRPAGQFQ
Description: as §2

hCTLA4-Fc = biological target: T6, hCTLA4-Fc (human, UniProt P16410 37-162, limits assumed); assay: SPR (Biacore), hCTLA4-Fc amine coupled at approximately 8000 RU
T6 construct: Bought; not shown: Fc; not described
T6 sequence (looked up): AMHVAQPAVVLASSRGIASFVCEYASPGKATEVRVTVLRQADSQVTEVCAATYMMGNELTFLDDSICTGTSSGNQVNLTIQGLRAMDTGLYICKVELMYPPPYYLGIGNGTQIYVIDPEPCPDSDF
Description: as §2

[4] = biological target: T7, PRO87299 expressed on cells (human, UniProt Q7Z6A9 31-289); assay: radioligand binding to transfected cells, Scatchard analysis
T7 construct: also called PRO87299 transfected cells; 293 cells expressing PRO87299
Description: as §1

[5] = biological target: T8, LIGHT expressed on transfected cells (Homo sapiens (Human), UniProt O43557 1-240); assay: as above
T8 construct: also called LIGHT (expressed protein)
Description: as §1

[6] = biological target: T9, PRO87299/LIGHT (both expressed on the same transfected cells) (human, UniProt Q7Z6A9 31-289; O43557 1-240); assay: radioligand binding to cells expressing both PRO87299 and LIGHT, Scatchard analysis
T9 construct: Two proteins co-expressed on cells as the target of I-125-HVEM-Fc; not a defined complex

B1: LIGHT-FLAG (ligand)
chain: GEMVTRLPDGPAGSWEQLIQERRSHEVNPAAHLTGANSSLTGSGGPLLWETQLGLAFLRGLSYHDGALVVTKAGYYYIYSKVQLGGVGCPLGLASTITHGLYKRTPRYPEELELLVSQQSPCGRATSSSRVWWDSSFLGGVVHLEAGEEVVVRVLDERLVRLRDGTRSYFGAFMV
notes: Radio-iodinated; also called I-125-LIGHT-FLAG; not shown: FLAG tag
- Kd [1]: 2.5 nM

B2: LIGHT (soluble, purchased from Alexis, Cat. #552-018-C010) (ligand)
chain: GEMVTRLPDGPAGSWEQLIQERRSHEVNPAAHLTGANSSLTGSGGPLLWETQLGLAFLRGLSYHDGALVVTKAGYYYIYSKVQLGGVGCPLGLASTITHGLYKRTPRYPEELELLVSQQSPCGRATSSSRVWWDSSFLGGVVHLEAGEEVVVRVLDERLVRLRDGTRSYFGAFMV
notes: Bought soluble protein; Monomer molecular weight 25 kDa used for concentrations
- binding result (PRO87299(ECD)-Fc [2]): no binding

B3: HVEM-Fc (Fc fusion)
chain: LPSCKEDEYPVGSECCPKCSPGYRVKEACGELTGTVCEPCPPGTYIAHLNGLSKCLQCQMCDPAMGLRASRNCSRTENAVCGCSPGHFCIVQDGDHCAACRAYATSSPGQRVQKGGTESQDTLCQNCPPGTFSPNGTLEECQHQTKCSWLVTKAGAGTSSS
notes: Produced in stably transfected CHO cells, Protein A purified; also called HVEM-Fc fusion protein; I-125-HVEM-Fc; not shown: Fc
- binding result (PRO87299(ECD)-Fc [3]): binds
- binding result (hCD28-Fc): no binding (tested: 2 µg/ml)
- binding result (hICOS-Fc): no binding (tested: 2 µg/ml)
- binding result (hPD-1-Fc): no binding (tested: 2 µg/ml)
- binding result (hCTLA4-Fc): no binding (tested: 2 µg/ml)
- Kd [4]: 5.5 nM
- Kd [5]: 7 nM
- Kd [6]: 0.5 nM
